Reference: article PMC12457548, “Comparative Characterization of Plasmodium falciparum Small Heat Shock Proteins and Their Inhibition by Quercetin (3,3′,4′,5,7-Pentahydroxyflavone)” (The Protein Journal, 2025)

T1: PfHsp20b (Plasmodium falciparum, UniProt Q8IB02)
T1 construct: gene PF3D7_0816500; full-length, residues 1–173, N-terminal 6xHis
T1 sequence (Q8IB02 1-172): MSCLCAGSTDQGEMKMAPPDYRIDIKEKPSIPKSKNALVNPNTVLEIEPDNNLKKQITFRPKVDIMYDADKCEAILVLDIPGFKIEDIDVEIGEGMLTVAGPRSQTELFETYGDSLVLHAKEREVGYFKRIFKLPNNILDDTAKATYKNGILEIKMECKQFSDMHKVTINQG


Legend:
[1] = target: T1, PfHsp20b; test: inhibition of chaperone activity (suppression of heat-induced MDH/CS aggregation); CD, DSF and DLS shifts also measured; type: biochemical
[2] = target: T2, PfHsp20a (Plasmodium falciparum, UniProt Q8IES0); test: as above; type: biochemical
T2 construct: gene PF3D7_1304500; full-length, residues 1–211, N-terminal 6xHis

[3] = target: T3, PfHsp20c (Plasmodium falciparum, UniProt Q8I5T9); test: as above; type: biochemical
T3 construct: gene PF3D7_1211100; full-length, residues 1–231, N-terminal 6xHis

[4] = target: the molecule itself; test: dynamic light scattering; as a1 but in the presence of 3 uM quercetin; 20 mM Tris pH 7.4, 300 mM NaCl, 25 °C; oligomer size estimated from the hydrodynamic radius
[5] = target: the molecule itself; test: dynamic light scattering; 0-6 uM protein alone in 20 mM Tris pH 7.4, 300 mM NaCl, 25 °C; oligomer size estimated from the average hydrodynamic radius with the fluidic webserver

Molecule | IC50 [1] [nM] | IC50 [2] [nM] | IC50 [3] [nM] | stoichiometry N [4] | stoichiometry N [5]
O=c1c(O)c(-c2ccc(O)c(O)c2)oc2cc(O)cc(O)c12 [quercetin, 3,3′,4′,5,7-pentahydroxyflavone] | 550 ± 100 | 320 ± 110 | 110 ± 70 |  | 
PfHsp20c (natural protein, Plasmodium falciparum, UniProt Q8I5T9 1-231, looked up, Codon-harmonised synthetic gene in pQE30 between BamHI and HindIII; forms large oligomers in solution by DLS; also called PF3D7_1211100; P. falciparum Hsp20; source: E. coli XL1 Blue, purified (IMAC)) MSTTNILKPKIIIESSKEQGVGEKRSSTLSAPFEKNMFSTYSYSNPISNMRSSTHNEYKYNWTKYVNSSQIPHVDEYIKTFEGPNTTYYYETIPLKTNTNNIFEITPSQEELSRISYNPKIEIYSTCDFAVLMMDIPGVSKENLKVELEKGLLKVYGNKYKPHIEELEKRNEYHTKIIERLNEYYFCKIFQMPPAFSEGQNISCKLNNGELLVKILANELKTQKKVIDIQS |  |  |  | 35 | 
PfHsp20a (natural protein, Plasmodium falciparum, UniProt Q8IES0 1-211, looked up, Codon-harmonised synthetic gene in pQE30 between BamHI and HindIII; forms large oligomers in solution by DLS; also called PF3D7_1304500; P. falciparum Hsp20; source: E. coli XL1 Blue, purified (IMAC)) MSENNLSKDNNKNKRNEALENAGMLDTFFESMYDHMNRLDQYHSDMNRMMNSLRGYYMNNDFFRFFPNRRSLTDYDINRNRNHDLLLSKPFSSMFRRDGYSNVPAMDVLDKEKHLEIKMDVPGLNKEDVQINLDDGKLEISGEFKKSHEQKDEQQRYYIKERCESSFYRSFTLPENVSEDEIKATFKDGVLKIDIPKKDIPDKKKKKIEID |  |  |  | 40 | 
PfHsp20b (natural protein, Plasmodium falciparum, UniProt Q8IB02 1-172, looked up, Codon-harmonised synthetic gene in pQE30 between BamHI and HindIII; forms oligomers in solution by DLS; also called PF3D7_0816500; P. falciparum Hsp20; source: E. coli XL1 Blue, purified (IMAC)) MSCLCAGSTDQGEMKMAPPDYRIDIKEKPSIPKSKNALVNPNTVLEIEPDNNLKKQITFRPKVDIMYDADKCEAILVLDIPGFKIEDIDVEIGEGMLTVAGPRSQTELFETYGDSLVLHAKEREVGYFKRIFKLPNNILDDTAKATYKNGILEIKMECKQFSDMHKVTINQG |  |  |  | 37 | ~38
